The assay addresses His-DnaNCg (Corynebacterium glutamicum sliding clamp, beta-clamp), purified (Corynebacterium glutamicum). The assay is described as follows: BLI.

The substance EndoMSCg D144A mutant protein (enzyme) registered a Kd of 182 nM.
Substance “EndoMSCg (Corynebacterium glutamicum EndoMS/NucS), wild type, purified untagged protein (enzyme)” came in with a Kd of 185 nM.
